Literature values in article PMC2751630.

Columns and labels:
PKA RI (Homo sapiens) = PKA RI (Homo sapiens) (UniProt P10644)
PKA RIIβ (Homo sapiens) = PKA RIIβ (Homo sapiens) (UniProt P31323)
PKA RIIα (Homo sapiens) = PKA RIIα (Homo sapiens) (UniProt P13861)
Chain of PKA RIIα (Homo sapiens) (P13861 2-404): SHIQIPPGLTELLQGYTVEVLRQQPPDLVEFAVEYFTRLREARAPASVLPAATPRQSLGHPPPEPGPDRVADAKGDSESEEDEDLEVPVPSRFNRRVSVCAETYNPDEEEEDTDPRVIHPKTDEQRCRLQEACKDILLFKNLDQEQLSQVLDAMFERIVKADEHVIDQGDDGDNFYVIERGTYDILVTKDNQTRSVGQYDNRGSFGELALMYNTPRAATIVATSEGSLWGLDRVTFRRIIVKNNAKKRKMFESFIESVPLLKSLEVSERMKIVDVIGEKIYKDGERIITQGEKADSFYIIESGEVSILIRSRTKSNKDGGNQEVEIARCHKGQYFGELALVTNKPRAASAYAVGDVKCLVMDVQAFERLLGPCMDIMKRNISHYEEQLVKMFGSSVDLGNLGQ

Chain of AKAP79 (P24588 whole entry): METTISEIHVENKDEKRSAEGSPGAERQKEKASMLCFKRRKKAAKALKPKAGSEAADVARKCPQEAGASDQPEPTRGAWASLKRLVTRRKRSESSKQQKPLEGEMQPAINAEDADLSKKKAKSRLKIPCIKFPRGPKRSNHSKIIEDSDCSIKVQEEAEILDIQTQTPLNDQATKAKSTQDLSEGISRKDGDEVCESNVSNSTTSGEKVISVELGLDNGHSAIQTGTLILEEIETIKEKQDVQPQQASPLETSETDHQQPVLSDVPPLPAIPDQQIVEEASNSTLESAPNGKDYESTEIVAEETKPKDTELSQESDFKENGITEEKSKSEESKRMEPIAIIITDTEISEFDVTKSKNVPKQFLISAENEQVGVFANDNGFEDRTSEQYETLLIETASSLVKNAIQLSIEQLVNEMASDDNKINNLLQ
Chain of PKA RI (Homo sapiens) (P10644 whole entry): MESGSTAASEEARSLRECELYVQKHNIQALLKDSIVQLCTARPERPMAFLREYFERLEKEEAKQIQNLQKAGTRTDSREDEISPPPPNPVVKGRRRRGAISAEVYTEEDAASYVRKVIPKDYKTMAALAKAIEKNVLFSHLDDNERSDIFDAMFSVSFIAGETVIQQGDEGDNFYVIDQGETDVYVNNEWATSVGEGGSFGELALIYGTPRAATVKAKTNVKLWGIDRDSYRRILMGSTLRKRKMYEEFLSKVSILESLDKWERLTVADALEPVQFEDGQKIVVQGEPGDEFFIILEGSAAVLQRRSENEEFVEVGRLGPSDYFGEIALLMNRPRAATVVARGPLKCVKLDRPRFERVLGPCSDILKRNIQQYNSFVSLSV
Chain of PKA RIIβ (Homo sapiens) (P31323 whole entry): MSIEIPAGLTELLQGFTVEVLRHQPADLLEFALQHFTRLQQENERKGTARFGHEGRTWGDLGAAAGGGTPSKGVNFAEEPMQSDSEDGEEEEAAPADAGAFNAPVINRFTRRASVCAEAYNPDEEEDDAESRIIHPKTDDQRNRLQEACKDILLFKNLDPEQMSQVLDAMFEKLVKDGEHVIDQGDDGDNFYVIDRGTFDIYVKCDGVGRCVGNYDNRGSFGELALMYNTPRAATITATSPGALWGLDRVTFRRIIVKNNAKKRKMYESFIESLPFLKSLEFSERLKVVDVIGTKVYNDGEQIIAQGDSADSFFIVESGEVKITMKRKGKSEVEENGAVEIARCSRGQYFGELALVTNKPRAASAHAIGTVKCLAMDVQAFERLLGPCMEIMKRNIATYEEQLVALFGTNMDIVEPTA

In the case of AKAP79 (from UniProt P24588), the Kd (PKA RI (Homo sapiens)) is given as greater than 1000 nM, the Kd (PKA RIIβ (Homo sapiens)) is given as 4.5 nM and the Kd (PKA RIIα (Homo sapiens)) is given as 1.5 nM.
